# Measured values taken from FireProtDB (doi:10.1021/bi9912950).
# Where “and” joins values, the source holds several entries; their conditions need not be identical. Identical values can stand only once.
# B1: Oxytocin-neurophysin 1 wild type, P01175 (protein)
# chain: MAGSSLACCLLGLLALTSACYIQNCPLGGKRAVLDLDVRTCLPCGPGGKGRCFGPSICCGDELGCFVGTAEALRCQEENYLPSPCQSGQKPCGSGGRCAAAGICCSPDGCHEDPACDPEAAFSQH
# Settings: Bos taurus, 25 °C, CD, Ammonium acetate 0.1 M, reversible: yes, whole UniProt chain shown
protein,measurement,setting,value
B1,denaturant m value,"pH 6, GdnHCl",1.6 kcal/mol/M and 1.1 kcal/mol/M
same,unfolding free energy,"pH 6, GdnHCl",6.8 kcal/mol and 3.1 kcal/mol
same,denaturant m value,"pH 8, GdnHCl",1.5 kcal/mol/M and 1.1 kcal/mol/M
same,unfolding free energy,"pH 8, GdnHCl",4.9 kcal/mol and 3 kcal/mol
same,denaturant m value,"pH 8, Urea",0.7 kcal/mol/M and 0.4 kcal/mol/M
same,unfolding free energy,"pH 8, Urea",4.4 kcal/mol and 2.4 kcal/mol
same,denaturant m value,"pH 10, GdnHCl",0.9 kcal/mol/M and 1 kcal/mol/M
same,unfolding free energy,"pH 10, GdnHCl",2.7 kcal/mol and 2.6 kcal/mol
